Source: PMC11102226, “Three-dimensional DNA nanomachine biosensor coupled with CRISPR Cas12a cascade amplification for ultrasensitive detection of carcinoembryonic antigen”

Biological target: carcinoembryonic antigen (CEA) (UniProt P06731 35-685)
Assay: agarose gel (displacement of Walker strand from aptamer-Walker duplex); 10 ng/mL CEA; DNA 10 uM; aptamer pre-hybridised to Walker; aptamer-Walker duplex formed in 1x PBS (0.01 M, pH 7.4) at 37 C for 1 h; sensor with 10 mM Mn2+; gel binding buffer not given in the available material
Conditions: protein displaces Walker

carcinoembryonic antigen (CEA), sequence (P06731 35-685): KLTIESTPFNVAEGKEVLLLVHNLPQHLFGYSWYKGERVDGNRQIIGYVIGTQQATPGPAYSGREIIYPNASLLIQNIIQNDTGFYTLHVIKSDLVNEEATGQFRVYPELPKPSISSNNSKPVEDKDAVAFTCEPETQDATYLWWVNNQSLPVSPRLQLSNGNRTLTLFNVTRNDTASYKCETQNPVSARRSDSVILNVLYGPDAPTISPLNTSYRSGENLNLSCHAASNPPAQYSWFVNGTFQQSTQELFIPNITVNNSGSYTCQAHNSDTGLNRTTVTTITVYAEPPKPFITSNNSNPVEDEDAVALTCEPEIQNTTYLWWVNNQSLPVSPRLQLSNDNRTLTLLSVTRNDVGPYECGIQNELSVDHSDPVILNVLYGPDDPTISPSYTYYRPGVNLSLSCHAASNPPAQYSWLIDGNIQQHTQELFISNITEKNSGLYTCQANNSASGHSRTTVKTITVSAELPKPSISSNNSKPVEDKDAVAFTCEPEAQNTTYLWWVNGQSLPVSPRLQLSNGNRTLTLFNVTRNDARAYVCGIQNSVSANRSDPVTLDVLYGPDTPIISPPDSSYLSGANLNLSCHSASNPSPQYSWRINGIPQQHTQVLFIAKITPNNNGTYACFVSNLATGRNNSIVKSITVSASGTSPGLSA

ATACCAGCTTATTCAATT (ssDNA) [CEA aptamer]
binding result: binds
